Article PMC8571522, “siRNA screening identifies METTL9 as a histidine Nπ-methyltransferase that targets the proinflammatory protein S100A9” (The Journal of Biological Chemistry, 2021)

Key:
[1] = target: T1, recombinant S100A9 prepared by cleavage of GST-S100A9, after the reaction with GST-METTL9 in the absence of … (mouse, UniProt P31725 1-113); experiment: pull-down; recombinant GST-cleaved S100A9 after an in vitro methylation reaction with GST-METTL9 in the presence or the absence of SAM, then binding to GST-S100A8 (Fig. S6); settings: both partners purified
T1 construct: S100A9, mouse; also called GST-cleaved S100A9; mS100A9; source: E. coli BL21-CodonPlus (DE3)-RIL, purified (Glutathione Sepharose 4B), GST removed with PreScission Protease; incubated with GST-METTL9 in the absence of SAM
T1 sequence (looked up): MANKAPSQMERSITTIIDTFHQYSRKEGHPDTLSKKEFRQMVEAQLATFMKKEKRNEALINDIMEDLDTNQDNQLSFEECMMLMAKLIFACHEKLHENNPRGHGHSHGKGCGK

[2] = target: T2, recombinant S100A9 prepared by cleavage of GST-S100A9, methylated in vitro by GST-METTL9 in the presence of … (mouse, UniProt P31725 1-113, Nπ-methylhistidine at His-107); experiment: as above; settings: both partners purified
T2 construct: S100A9, mouse; methylated at His-107 by METTL9; also called de novo methylated S100A9; methylated recombinant S100A9; source: E. coli BL21-CodonPlus (DE3)-RIL, purified (Glutathione Sepharose 4B), GST removed with PreScission Protease; in vitro methylation reaction with GST-METTL9 in the presence of SAM
T2 sequence (looked up): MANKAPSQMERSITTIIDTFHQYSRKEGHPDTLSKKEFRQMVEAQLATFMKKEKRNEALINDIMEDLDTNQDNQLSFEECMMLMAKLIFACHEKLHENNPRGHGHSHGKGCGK

binding result [1]: binds
binding result [2]: binds
B1: GST-fused mouse S100A8 (natural protein, UniProt P27005 1-89, looked up)
chain: MPSELEKALSNLIDVYHNYSNIQGNHHALYKNDFKKMVTTECPQFVQNINIENLFRELDINSDNAINFEEFLAMVIKVGVASHKDSHKE
notes: S100A8, mouse; Held on glutathione beads in the pull-downs; also called GST-S100A8; mS100A8; source: E. coli BL21, purified (Glutathione Sepharose 4B)
